Measured values taken from the supplement of paper PMC9112550, “Optimization of the antimicrobial peptide Bac7 by deep mutational scanning” (BMC Biology, 2022).

System: Escherichia coli TOP10
Test: shrunken log2 fold change of peptide-encoding DNA abundance (4.5 h post-induction vs induction); higher = less antimicrobial activity (less host growth inhibition)
Conditions: time post-induction: 4.5 h; library: site-saturation at positions 5, 18, 19, 20
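Also: peptides expressed intracellularly from a pBAD plasmid library in pooled LB shake-flask culture, induced with 0.3% L-arabinose, DNA abundance read by NGS, three biological replicates, DESeq2 with apeglm shrinkage.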

Row | Sequence | shrunken log2 fold change
1 | RRIRLRPPRLPRPRPRPAKNPRP | 0.00752
2 | RRIRMRPPRLPRPRPRPVGLPRP | 0.383
3 | RRIRFRPPRLPRPRPRPLIQPRP | -0.289
4 | RRIRARPPRLPRPRPRPTPIPRP | 0.747
5 | RRIRMRPPRLPRPRPRPSFMPRP | 0.0821
6 | RRIRHRPPRLPRPRPRPSHLPRP | -0.0467
7 | RRIRARPPRLPRPRPRPPVHPRP | 0.516
8 | RRIRWRPPRLPRPRPRPEDDPRP | 1.19
9 | RRIRNRPPRLPRPRPRPWIEPRP | -0.042
10 | RRIRSRPPRLPRPRPRPRRVPRP | 0.452
11 | RRIRHRPPRLPRPRPRPNGNPRP | -0.617
12 | RRIRWRPPRLPRPRPRPNSHPRP | -0.16
13 | RRIRYRPPRLPRPRPRPHSNPRP | -0.0748
14 | RRIRLRPPRLPRPRPRPSYFPRP | -0.452
15 | RRIRVRPPRLPRPRPRPKLNPRP | -0.212
16 | RRIRDRPPRLPRPRPRPNFPPRP | -0.0273
17 | RRIRFRPPRLPRPRPRPWRWPRP | 0.0911
18 | RRIRCRPPRLPRPRPRPTDIPRP | -0.623
19 | RRIRSRPPRLPRPRPRPTGWPRP | 1.01
20 | RRIRCRPPRLPRPRPRPWMLPRP | -0.419
21 | RRIRTRPPRLPRPRPRPNMIPRP | -0.277
22 | RRIRDRPPRLPRPRPRPLWRPRP | 0.152
23 | RRIRHRPPRLPRPRPRPWEKPRP | -0.359
24 | RRIRGRPPRLPRPRPRPTASPRP | 1.49
25 | RRIRARPPRLPRPRPRPMLWPRP | 0.183

Row | Sequence | shrunken log2 fold change
26 | RRIRMRPPRLPRPRPRPPHFPRP | 1.03
27 | RRIRMRPPRLPRPRPRPAGNPRP | 0.396
28 | RRIRARPPRLPRPRPRPNNRPRP | -0.326
29 | RRIRPRPPRLPRPRPRPMVSPRP | -0.0725
30 | RRIRPRPPRLPRPRPRPDWKPRP | 0.286
31 | RRIRQRPPRLPRPRPRPNAFPRP | 0.227
32 | RRIRKRPPRLPRPRPRPEYHPRP | -0.0122
33 | RRIRQRPPRLPRPRPRPWRLPRP | -0.0759
34 | RRIRIRPPRLPRPRPRPEMQPRP | 0.128
35 | RRIRDRPPRLPRPRPRPTKSPRP | 0.366
36 | RRIRPRPPRLPRPRPRPIEKPRP | 0.0388
37 | RRIRHRPPRLPRPRPRPMWRPRP | 0.136
38 | RRIRQRPPRLPRPRPRPIFLPRP | 0.805
39 | RRIRPRPPRLPRPRPRPKLTPRP | 0.421
40 | RRIRVRPPRLPRPRPRPRAKPRP | 0.16
41 | RRIRLRPPRLPRPRPRPELQPRP | 0.328
42 | RRIRYRPPRLPRPRPRPHRWPRP | -0.0477
43 | RRIRWRPPRLPRPRPRPMIEPRP | 0.0215
44 | RRIRYRPPRLPRPRPRPCFKPRP | -0.328
45 | RRIRDRPPRLPRPRPRPMIKPRP | -0.222
46 | RRIRNRPPRLPRPRPRPSYNPRP | -0.974
47 | RRIRFRPPRLPRPRPRPYSLPRP | -0.00881
48 | RRIRHRPPRLPRPRPRPPQQPRP | 0.6
49 | RRIRERPPRLPRPRPRPDVTPRP | 0.00636
50 | RRIRGRPPRLPRPRPRPPANPRP | 1.12

Row | Sequence | shrunken log2 fold change
51 | RRIRKRPPRLPRPRPRPYDQPRP | 0.0359
52 | RRIRYRPPRLPRPRPRPCIYPRP | -0.207
53 | RRIRQRPPRLPRPRPRPHFLPRP | -0.218
54 | RRIRLRPPRLPRPRPRPQGTPRP | 0.0413
55 | RRIRNRPPRLPRPRPRPVTIPRP | -0.463
56 | RRIRARPPRLPRPRPRPTYDPRP | -0.0892
57 | RRIRCRPPRLPRPRPRPIFMPRP | -0.269
58 | RRIRLRPPRLPRPRPRPCDIPRP | -0.0237
59 | RRIRERPPRLPRPRPRPIIFPRP | -0.352
60 | RRIRCRPPRLPRPRPRPQQWPRP | -0.0268
61 | RRIRYRPPRLPRPRPRPIRTPRP | -0.258
62 | RRIRPRPPRLPRPRPRPHYRPRP | -0.112
63 | RRIRPRPPRLPRPRPRPQNPPRP | -0.216
64 | RRIRMRPPRLPRPRPRPQPHPRP | 0.46
65 | RRIRKRPPRLPRPRPRPFVVPRP | -0.00719
66 | RRIRHRPPRLPRPRPRPLRHPRP | -0.132
67 | RRIRGRPPRLPRPRPRPWAKPRP | -0.0167
68 | RRIRTRPPRLPRPRPRPIMQPRP | -0.201
69 | RRIRRRPPRLPRPRPRPDPWPRP | 0.335
70 | RRIRPRPPRLPRPRPRPFEYPRP | -0.0601
71 | RRIRWRPPRLPRPRPRPCKIPRP | -0.114
72 | RRIRGRPPRLPRPRPRPTMNPRP | 0.709
73 | RRIRLRPPRLPRPRPRPTPVPRP | 0.559
74 | RRIRSRPPRLPRPRPRPFAHPRP | 0.0573
75 | RRIRKRPPRLPRPRPRPVHMPRP | -0.0183

Row | Sequence | shrunken log2 fold change
76 | RRIRLRPPRLPRPRPRPIGMPRP | 0.0212
77 | RRIRWRPPRLPRPRPRPMLFPRP | -0.00681
78 | RRIRSRPPRLPRPRPRPYFFPRP | -0.682
79 | RRIRLRPPRLPRPRPRPMNHPRP | -0.409
80 | RRIRERPPRLPRPRPRPDYCPRP | -0.00145
81 | RRIRFRPPRLPRPRPRPGFQPRP | 0.0959
82 | RRIRSRPPRLPRPRPRPNKRPRP | -0.174
83 | RRIRYRPPRLPRPRPRPCVQPRP | -0.236
84 | RRIRLRPPRLPRPRPRPWWHPRP | 0.0812
85 | RRIRFRPPRLPRPRPRPMPVPRP | -0.0124
86 | RRIRMRPPRLPRPRPRPASDPRP | 0.869
87 | RRIRGRPPRLPRPRPRPNYHPRP | -0.179
88 | RRIRQRPPRLPRPRPRPTASPRP | -0.0116
89 | RRIRGRPPRLPRPRPRPHALPRP | 0.0818
90 | RRIRDRPPRLPRPRPRPSYDPRP | -0.175
91 | RRIRCRPPRLPRPRPRPCEMPRP | -0.151
92 | RRIRSRPPRLPRPRPRPIKAPRP | 0.0326
93 | RRIRSRPPRLPRPRPRPFDIPRP | -0.639
94 | RRIRCRPPRLPRPRPRPWDQPRP | 0.0182
95 | RRIRSRPPRLPRPRPRPQKFPRP | -0.14
96 | RRIRARPPRLPRPRPRPLLQPRP | 0.171
97 | RRIRCRPPRLPRPRPRPMSNPRP | -0.64
98 | RRIRPRPPRLPRPRPRPPLAPRP | 0.513
99 | RRIRRRPPRLPRPRPRPACHPRP | 0.306
100 | RRIRKRPPRLPRPRPRPICIPRP | 0.163

Row | Sequence | shrunken log2 fold change
101 | RRIRERPPRLPRPRPRPWMHPRP | -0.126
102 | RRIRIRPPRLPRPRPRPGGDPRP | 0.0406
103 | RRIRSRPPRLPRPRPRPQGPPRP | -0.0522
104 | RRIRARPPRLPRPRPRPNHHPRP | -0.223
105 | RRIRGRPPRLPRPRPRPCNNPRP | 0.0304
106 | RRIRPRPPRLPRPRPRPNAYPRP | -0.0709
107 | RRIRARPPRLPRPRPRPVRSPRP | 0.345
108 | RRIRYRPPRLPRPRPRPLGHPRP | 0.0209
109 | RRIRFRPPRLPRPRPRPWGCPRP | -0.225
110 | RRIRPRPPRLPRPRPRPLRLPRP | 0.2
111 | RRIRGRPPRLPRPRPRPQNVPRP | 0.266
112 | RRIRQRPPRLPRPRPRPHDEPRP | -0.158
113 | RRIRDRPPRLPRPRPRPKDKPRP | 0.0636
114 | RRIRLRPPRLPRPRPRPPPCPRP | 0.846
115 | RRIRYRPPRLPRPRPRPTEAPRP | 0.0329
116 | RRIRERPPRLPRPRPRPICNPRP | -1.25
117 | RRIRHRPPRLPRPRPRPIDNPRP | -0.359
118 | RRIRKRPPRLPRPRPRPKWRPRP | 0.887
119 | RRIRERPPRLPRPRPRPHTYPRP | -0.281
120 | RRIRERPPRLPRPRPRPFIDPRP | -0.288
121 | RRIRRRPPRLPRPRPRPTLFPRP | 0.826
122 | RRIRNRPPRLPRPRPRPGHAPRP | 0.32
123 | RRIRPRPPRLPRPRPRPHTHPRP | -0.434
124 | RRIRPRPPRLPRPRPRPFENPRP | -0.00884
125 | RRIRFRPPRLPRPRPRPFWAPRP | 0.166
